The values below are quoted from earlier work in paper PMC6008173.

This series has as its target PCDH15 EC1-2 (Mus musculus) (UniProt Q99PJ1).

For orientation: Kd means a measure of binding affinity in units of concentration. Regarding CDH23 EC1-2 (from UniProt Q99PF4), the Kd was 3000 nM.
